Experimental data published in PMC8038991, “R-catcher, a potent molecular tool to unveil the arginylome” (Cellular and Molecular Life Sciences: CMLS, 2021).
“Also recorded” adds a separate entry of the source.

What was measured:
[1] = tested on: R-catcher; assay: Small-scale R-catcher pulldown of known arginylated proteins; assay type: binding, human; settings: HEK293 cells, R-catcher on tactin beads, immunoblot, Fig. 4d
Protocol: (§1) For small-scale R-catcher pull-down assays, 300 µg of purified R-catcher was conjugated with 120 µl of Strep-Tactin sepharose resin by incubating overnight at 4 °C. To test R-catcher’s ability to capture known arginylated proteins, such as R-BiP, R-PDI, R-nsP4 and R-RGS4, plasmids encoding Ub-X-(BiP, PDI and nsP4) or MX-RGS4 (X = Arg or Val) were transiently transfected into HEK293 cells. After 24 h, cells were treated with 10 µM MG132 and 100 nM thapsigargin for another 24 h. Cells were harvested and lysed in hypotonic buffer and 300 µg total protein was incubate with 25 µl R-catcher-sepharose resin in binding buffer (20 mM HEPES pH 7.9, 0.05% Tween 20, 10% glycerol, 0.2 M KCl, protease inhibitor and phosphatase inhibitor) for 3 h with gentle rotation at 4 °C. After three washes with binding buffer, bound proteins were dissociated with 2 × SDS sample buffer and boiling at 100 °C and subjected to immunoblotting using anti-myc or flag antibodies.

[2] = tested on: R-catcher; assay: R-catcher pulldown in +/+ and ATE1-/- MEFs; assay type: binding; settings: +/+ versus ATE1-/- MEFs, MG132 plus TG, 9 h, Fig. 6b
Protocol: as §1
(§2) Plasmids encoding the proteins were transiently transfected to HeLa cells for 24 h and stimulated with 5 µM MG132 plus 100 nM TG for another 24 h. Cell lysates were incubated with R-catcher immobilized on tactin beads for 3 h. After wash, bound proteins were eluted with 2 × SDS sample buffer followed by boiling at 100 °C for 10 min and visualized by western blot analysis. b R-catcher pulldown assays to validate ATE1-dependent arginylation of […]1, PRDX4, FBLN1 and CLUS. […] Cell lysates were subjected to R-catcher pulldown, and bound proteins were detected by western blot analysis. c R-catcher pull-down assays to evaluate if the arginylation of FBNL1, SERPINH1, CLUS and PRDX4 is induced in response to MG132 plus thapsigargin. d X-peptide pulldown assays to confirm no interaction of R-catcher with Nt-Ala19 of SERPINH1 peptides and Nt-Trp38 of PRDX4 peptides. […] Bound GST-ZZ (N132D) was detected by immunoblotting. e Identification of arginylated sites employing mutational analysis. […]

[3] = Identification of arginylation sites, GelNrich and in-gel digestion LC-MS/MS
From the text: Upon separation of the immunoprecipitated protein by SDS-PAGE and staining with Coomassie Blue, the corresponding protein band was excised, half of which was subjected to GelNrich and the other half to conventional in-gel digestion GelNrich is an N-terminal peptide enrichment method based on in-gel digestion. The method includes in-gel protein level labeling of primary amines using d6-acetic anhydride and post-digestion negative selection of labeled N-terminal peptide(s) using N-hydroxysuccinimide activated agarose beads. Peptides recovered from GelNrich or in-gel digestion were dried in a vacuum evaporator and reconstituted in 0.1% formic acid. An aliquot was injected from a cooled (10 °C) auto-sampler into a reversed-phase EASY-Spray column (25 cm × 75 μm, Thermo Fisher Scientific) on an Eksigent nanoLC-ultra 1D plus system (Danaher Corporation) at a flow rate of 300 nL/min. Prior to use, the column was equilibrated with 96% buffer A (0.1% formic acid in water) and 4% buffer B (0.1% formic acid in acetonitrile). The peptides were eluted with a linear gradient from 4 to 35% buffer B over 60 min and 35–80% buffer B over 2 min followed by an organic wash and aqueous re-equilibration at a flow rate of 300 nL/min with a total run time of 96 min. The HPLC system was coupled to a Q-Exactive mass spectrometer (Thermo Fisher Scientific) operated in a data-dependent acquisition (DDA) mode. Survey full-scan MS spectra (m/z 400–1800) were acquired with a resolution of 70,000. The MS/MS spectra of the 12 most intense ions from the MS1 scan with charge states 1 ~ 5 were acquired with the following options: resolution, 17,500; automatic gain control (AGC) target, 5E4; isolation width, 2.0 m/z; normalized collision energy, 27%; dynamic exclusion duration, 60 s; and ion selection threshold, 4.2E2 counts. Source ionization parameters were as follow: spray voltage, 1.9 kV; capillary temperature, 275 °C; and s-lens level, 50.0. […]

[4] = tested on: R-catcher; assay: R-catcher pulldown of putative arginylated ER proteins, HeLa; assay type: binding, human; settings: 5 µM MG132 plus 100 nM TG, RA competition, Fig. 6a
Protocol: as §1
Plasmids encoding the proteins were transiently transfected to HeLa cells for 24 h and stimulated with 5 µM MG132 plus 100 nM TG for another 24 h. Cell lysates were incubated with R-catcher immobilized on tactin beads for 3 h. After wash, bound proteins were eluted with 2 × SDS sample buffer followed by boiling at 100 °C for 10 min and visualized by western blot analysis. b R-catcher pulldown assays to validate ATE1-dependent arginylation of […]1, PRDX4, FBLN1 and CLUS. Plasmids encoding […]1, PRDX4, FBLN1 and CLUS were transiently transfected into + / + and ATE1^−/− MEFs for 24 h and stimulated with 5 µM MG132 plus 100 nM TG for another 9 h. Cell lysates were subjected to R-catcher pulldown, and bound proteins were detected by western blot analysis. c R-catcher pull-down assays to evaluate if the arginylation of FBNL1, SERPINH1, CLUS and PRDX4 is induced in response to MG132 plus thapsigargin. d X-peptide pulldown assays to confirm no interaction of R-catcher with Nt-Ala19 of SERPINH1 peptides and Nt-Trp38 of PRDX4 peptides. X-peptides where X is A19 (SignalP predicted P1’ site), E20 (next possible P1’ site predicted by PrediSi) or R19 (Arginylated form of Glu) for SERPINH1 and W38 (SignalP predicted P1’ site), E39 (next possible P1’ site predicted by PrediSi) or R38 (Arginylated form) for PRDX4. Biotinylated X-peptides immobilized on streptavidin agarose beads were incubated with affinity-purified GST-ZZ ([…]). Bound GST-ZZ (N132D) was detected by immunoblotting. e Identification of arginylated sites employing mutational analysis. Predicted P1’ sites of SERPINH1, PRDX4, CLUS and FBLN1 were substituted to Gly, and the inhibitory effect of the mutation on binding with R-catcher was examined by performing R-catcher pulldown assays

[5] = tested on: R-catcher; assay: R-catcher pulldown of P1' site Gly mutants; assay type: binding, human; settings: E20 SERPINH1, E30 (printed) PRDX4, D23 CLUS, D30 FBLN1 to Gly, Fig. 6e
Protocol: as §1, §2

B1: RGS4: ATE1 model substrate RGS4 (2nd oxidized Cys) (protein)
chain: RCKGLAGLPASCLRSAKDMKHRLGFLLQKSDSCEHNSSHNKKDKVVICQRVSQEEVKKWAESLENLISHECGLAAFKAFLKSEYSEENIDFWISCEEYKKIKSPSKLSPKAKKIYNEFISVQATKEVNLDSCTREETSRNMLEPTITCFDEAQKKIFNLMEKDSYRRFLKSRFYLDLVNPSSCGAEKQKGAKSSADCASLVPQCA
modifications: oxidized Cys as 2nd residue; left off: myc, end not stated, kept | His, end not stated, state not stated
- pulldown by R-catcher, overexpressed substrates [1]: could pulldown

B2: FBLN1: fibulin-1 (protein, UniProt P23142 30-703, looked up)
Fibulin-1: DVLLEACCADGHRMATHQKDCSLPYATESKECRMVQEQCCHSQLEELHCATGISLANEQDRCATPHGDNASLEATFVKRCCHCCLLGRAAQAQGQSCEYSLMVGYQCGQVFQACCVKSQETGDLDVGGLQETDKIIEVEEEQEDPYLNDRCRGGGPCKQQCRDTGDEVVCSCFVGYQLLSDGVSCEDVNECITGSHSCRLGESCINTVGSFRCQRDSSCGTGYELTEDNSCKDIDECESGIHNCLPDFICQNTLGSFRCRPKLQCKSGFIQDALGNCIDINECLSISAPCPIGHTCINTEGSYTCQKNVPNCGRGYHLNEEGTRCVDVDECAPPAEPCGKGHRCVNSPGSFRCECKTGYYFDGISRMCVDVNECQRYPGRLCGHKCENTLGSYLCSCSVGFRLSVDGRSCEDINECSSSPCSQECANVYGSYQCYCRRGYQLSDVDGVTCEDIDECALPTGGHICSYRCINIPGSFQCSCPSSGYRLAPNGRNCQDIDECVTGIHNCSINETCFNIQGGFRCLAFECPENYRRSAATLQQEKTDTVRCIKSCRPNDVTCVFDPVHTISHTVISLPTFREFTRPEEIIFLRAITPPHPASQANIIFDITEGNLRDSFDIIKRYMDGMTVGVVRQVRPIVGPFHAVLKLEMNYVVGGVVSHRNVVNVHIFVSEYWF
- capture by R-catcher, ATE1 dependence [2]: captured by R-catcher in an ATE1-dependent manner
- arginylation detected by mass spectrometry [3]: the D30 residue
- binding with R-catcher, Nt-Arg dependence [4]: Nt-Arg-dependent binding with R-catcher
- effect of Gly substitution of P1' site on interaction with R-catcher [5]: significantly impaired their interaction with R-catcher; also recorded: abolished their binding with R-catcher

B3: SERPINH1: serpin H1 (protein, UniProt P50454 19-418, looked up)
Serpin H1: AEVKKPAAAAAPGTAEKLSPKAATLAERSAGLAFSLYQAMAKDQAVENILVSPVVVASSLGLVSLGGKATTASQAKAVLSAEQLRDEEVHAGLGELLRSLSNSTARNVTWKLGSRLYGPSSVSFADDFVRSSKQHYNCEHSKINFRDKRSALQSINEWAAQTTDGKLPEVTKDVERTDGALLVNAMFFKPHWDEKFHHKMVDNRGFMVTRSYTVGVMMMHRTGLYNYYDDEKEKLQIVEMPLAHKLSSLIILMPHHVEPLERLEKLLTKEQLKIWMGKMQKKAVAISLPKGVVEVTHDLQKHLAGLGLTEAIDKNKADLSRMSGKKDLYLASVFHATAFELDTDGNPFDQDIYGREELRSPKLFYADHPFIFLVRDTQSGSLLFIGRLVRPKGDKMRDEL
- capture by R-catcher, ATE1 dependence [2]: captured by R-catcher in an ATE1-dependent manner
- arginylation detected by mass spectrometry [3]: not detected
- binding with R-catcher, Nt-Arg dependence [4]: Nt-Arg-dependent binding with R-catcher
- effect of Gly substitution of P1' site on interaction with R-catcher [5]: significantly impaired their interaction with R-catcher; also recorded: abolished their binding with R-catcher

B4: PRDX4: Peroxiredoxin-4 (protein, UniProt Q13162 38-271, looked up)
Peroxiredoxin-4: WETEERPRTREEECHFYAGGQVYPGEASRVSVADHSLHLSKAKISKPAPYWEGTAVIDGEFKELKLTDYRGKYLVFFFYPLDFTFVCPTEIIAFGDRLEEFRSINTEVVACSVDSQFTHLAWINTPRRQGGLGPIRIPLLSDLTHQISKDYGVYLEDSGHTLRGLFIIDDKGILRQITLNDLPVGRSVDETLRLVQAFQYTDKHGEVCPAGWKPGSETIIPDPAGKLKYFDKLN
- capture by R-catcher, ATE1 dependence [2]: captured by R-catcher in an ATE1-dependent manner
- arginylation detected by mass spectrometry [3]: not detected
- binding with R-catcher, Nt-Arg dependence [4]: Nt-Arg-dependent binding with R-catcher
- effect of Gly substitution of P1' site on interaction with R-catcher [5]: significantly impaired their interaction with R-catcher; also recorded: abolished their binding with R-catcher

B5: LG3BP: lectin galactoside-binding soluble 3-binding protein (protein)
chain: VNDGDMRLADGGATNQGRVEIFYRGQWGTVCDNLWDLTDASVVCRALGFENATQALGRAAFGQGSGPIMLDEVQCTGTEASLADCKSLGWLKSNCRHERDAGVVCTNETRSTHTLDLSRELSEALGQIFDSQRGCDLSISVNVQGEDALGFCGHTVILTANLEAQALWKEPGSNVTMSVDAECVPMVRDLLRYFYSRRIDITLSSVKCFHKLASAYGARQLQGYCASLFAILLPQDPSFQMPLDLYAYAVATGDALLEKLCLQFLAWNFEALTQAEAWPSVPTDLLQLLLPRSDLAVPSELALLKAVDTWSWGERASHEEVEGLVEKIRFPMMLPEELFELQFNLSLYWSHEALFQKKTLQALEFHTVPFQLLARYKGLNLTEDTYKPRIYTSPTWSAFVTDSSWSARKSQLVYQSRRGPLVKYSSDYFQAPSDYRYYPYQSFQTPQHPSFLFQDKRVSWSLVYLPTIQSCWNYGFSCSSDELPVLGLTKSGGSDRTIAYENKALMLCEGLFVADVTDFEGWKAAIPSALDTNSSKSTSSFPCPAGHFNGFRTVIRPFYLTNSSGVD
modifications: left off: myc, end not stated, kept | His, end not stated, state not stated
- binding with R-catcher, Nt-Arg dependence [4]: no significant binding affinity for R-catcher
